Measured values reported in US20220389097A1 (Genentech, published 2022).
Where no end group is shown, it is not given here.

How the values were obtained:
[1] = biological target: T1, human TREM2 on cells (human, UniProt Q9NZC2 19-230); assay: cell-based or functional assay
T1 sequence: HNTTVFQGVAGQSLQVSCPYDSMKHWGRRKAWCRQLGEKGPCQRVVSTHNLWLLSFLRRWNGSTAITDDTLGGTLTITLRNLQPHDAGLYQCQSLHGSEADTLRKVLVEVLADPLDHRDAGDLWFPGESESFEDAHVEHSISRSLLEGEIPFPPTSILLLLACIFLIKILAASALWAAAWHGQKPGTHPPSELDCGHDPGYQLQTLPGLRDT

[2] = biological target: T2, soluble human TREM2 (sTREM2) (human, UniProt Q9NZC2 19-157); assay: sandwich ELISA: test antibody coated as capture, sTREM2 from BMDM culture supernatant, biotinylated 3.17A9 as detection; normalised to 1.16B8
T2 construct: also called soluble TREM2; TREM2 ectodomain
T2 sequence: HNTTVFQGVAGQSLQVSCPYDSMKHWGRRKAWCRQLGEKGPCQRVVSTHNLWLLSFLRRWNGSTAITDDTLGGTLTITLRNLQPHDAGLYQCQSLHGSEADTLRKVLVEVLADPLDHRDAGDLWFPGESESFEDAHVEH
Excerpt: For example, as shown in an Example 11 herein, the human TREM2 ELISA assay measured binding of antibodies to sTREM2 by coating onto plate wells the antibody to be tested as capture reagents and with biotinylated IgV-reactive monoclonal antibody 3.17A9 used as the detection reagent. Control antibody 1.16B8 was used as a positive control antibody to establish the standard for sTREM2 binding.
A human TREM2 ELISA assay was used to measure binding of more than forty antibodies to soluble TREM2 (sTREM2) as follows: test anti-hTREM2 antibodies were coated onto plate wells as capture reagents and a biotinylated IgV-reactive monoclonal antibody, 3.17A9, was used as the detection reagent. Antibody 1.16B8 was used as a control antibody to establish the standard for sTREM2 binding. Plates coated with test or control antibody were incubated with diluted culture supernatant from bone marrow-derived macrophage (BMDM) cultures from transgenic mice expressing hTREM2. sTREM2 is constitutively produced by the BMDM cultures expressing hTREM2 and shed into the culture supernatant. Measurements were recorded at 450 nm for detection and 570 nm for background. The 3.17A9/1.16B8 antibody pair was selected over reagents provided in the R&D Systems kit as the commercial reagents were not compatible with sTREM2 detection of some of the antibodies tested. Control antibody 1.16B8 light chain sequence is shown in SEQ ID NO: 170, and its heavy chain sequence is shown in SEQ ID NO: 171.

[3] = biological target: T3, soluble monomeric human TREM2 (human, UniProt Q9NZC2 19-174, limits assumed); assay: SPR (Biacore T200), 37 C; IgG on anti-CH1 chip, soluble monomeric TREM2
T3 construct: Not the same as shed sTREM2; also called soluble monomeric TREM2
T3 sequence: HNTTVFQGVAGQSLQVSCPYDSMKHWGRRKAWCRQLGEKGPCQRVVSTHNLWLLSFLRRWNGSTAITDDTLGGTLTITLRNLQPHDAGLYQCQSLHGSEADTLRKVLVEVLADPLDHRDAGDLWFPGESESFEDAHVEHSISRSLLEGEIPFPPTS

[4] = biological target: T4, 159-175 (also: biotinylated (site not given here)); assay: peptide ELISA with IgG, grey-scale heat map of OD650nm
T4 construct: member of the group m13
T4 peptide: ISRSLLEGEIPFPPTSI

[5] = biological target: T5, cynomolgus TREM2-Fc (cynomolgus monkey, UniProt A0A2K5UY34 49-204); assay: SPR (Biacore T200), 37 C; TREM2-Fc on anti-human IgG1 Fc chip, Fab in solution
T5 construct: also called cyno TREM2; not shown: Fc part
T5 sequence: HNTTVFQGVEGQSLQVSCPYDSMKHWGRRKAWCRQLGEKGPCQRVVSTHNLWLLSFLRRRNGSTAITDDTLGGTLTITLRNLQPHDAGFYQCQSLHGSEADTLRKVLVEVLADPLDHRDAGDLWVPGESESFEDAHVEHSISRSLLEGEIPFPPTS
Description: (§1) Briefly, clone variants were expressed as Fab fragments and purified by anti-CH1 affinity chromatography followed by size exclusion chromatography. TREM2-Fc antigens were immobilized on anti-human IgG1 Fc Biacore™ chips and soluble Para.09 variant and 3.10C2 clone Fab fragments were bound to immobilized TREM2 at 37° C.

[6] = biological target: T6, human TREM2-Fc (human, UniProt Q9NZC2 19-174); assay: as above
T6 construct: also called hTREM2; not shown: Fc part (captured by anti-human IgG1 Fc or protein A)
T6 sequence: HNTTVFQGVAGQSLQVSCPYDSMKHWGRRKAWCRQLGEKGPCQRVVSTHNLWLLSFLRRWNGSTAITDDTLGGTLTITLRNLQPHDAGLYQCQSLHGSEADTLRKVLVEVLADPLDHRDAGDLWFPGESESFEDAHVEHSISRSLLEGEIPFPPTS
Description: as §1

[7] = biological target: T5, cynomolgus TREM2-Fc; assay: SPR (Biacore T200), 37 C; TREM2-Fc on protein A chip, soluble Fab
Description: (§2) Affinity of h3.10C2.v1 (FIGS. 9A-B) for human and cynomolgus TREM2 was determined by SPR in a Biacore™ T200 apparatus in two formats, both at 37° C. In one format TREM2-Fc was immobilized on protein A chips and soluble anti-TREM2 Fab fragments used as ligands. In the second format, anti-TREM2 IgG was immobilized on anti-CH1 Biacore™ chips and used soluble monomeric TREM2 as ligand.

[8] = biological target: T6, human TREM2-Fc; assay: as above
Description: as §2

[9] = biological target: T6, human TREM2-Fc; assay: SPR (Biacore T200), 37 C; TREM2-Fc on protein A chip, Fab in solution
Description: The humanized heavy chain variants were tested for affinity by combining the heavy chain variants with the 3.10C2-L1 light chain. These variants were expressed as Fab fragments, purified by protein A chromatography, and tested for affinity for TREM2-Fc coated on a protein A chip with a Biacore™ T200 apparatus.

B1: rat Para.09- LC 3.27H7 mIgG2a LALAPG (antibody, V domains shown)
VH: EVQLVETGGSLVQPGKSLRLTCATSGFPFSNVWLHWVRQSPEKHPEWVAHIKAKSDNYATYYAESVKGRFTISRDDSKSSVFLQMNSLKEEDTAIYYCTDILEYWGQGTLVTVSS
VL: DVVLTQAPLSVSVTPGESASISCRSSRSLLTSKGITSLYWYLQKPGMSPHLLIYRMSNLASGIPDRFSGSGSETDFTLKISEVEPEDVGVYYCAQFLVYPYTFGAGTKLELKR
notes: Mouse IgG2a LALAPG constant region; also called Rat para.09 mIgG2a LALAPG; Para.09. mIgG2a LALAPG
EC50, Jurkat NFAT luciferase reporter cells [1]: 0.04 µg/mL
binding result [2]: no binding

B2: Para.09 IgG with the 3.27H7 light chain (antibody, V domains shown)
VH: EVQLVETGGSLVQPGKSLRLTCATSGFPFSNVWLHWVRQSPEKHPEWVAHIKAKSDNYATYYAESVKGRFTISRDDSKSSVFLQMNSLKEEDTAIYYCTDILEYWGQGTLVTVSS
VL: DVVLTQAPLSVSVTPGESASISCRSSRSLLTSKGITSLYWYLQKPGMSPHLLIYRMSNLASGIPDRFSGSGSETDFTLKISEVEPEDVGVYYCAQFLVYPYTFGAGTKLELK
notes: also called rat Para.09; Para.09-L27H7
Kd [3]: 0.011 nM
koff [3]: 2.1e-05 s⁻¹
kon [3]: 2e+06 M⁻¹ s⁻¹
binding result [4]: no binding

B3: Para.09 IgG with the 3.18E5 light chain (antibody, V domains shown)
VH: EVQLVETGGSLVQPGKSLRLTCATSGFPFSNVWLHWVRQSPEKHPEWVAHIKAKSDNYATYYAESVKGRFTISRDDSKSSVFLQMNSLKEEDTAIYYCTDILEYWGQGTLVTVSS
VL: DTVLTQAPLSVSVTPGESASISCRSNKSLLGIRDITSLYWYLQKPGKSPQLLIYRMSNLASGVPDRFSGSGSETDFTLKISEVETEDVGVYYCAQFLRYPYTFGPGTKLELK
binding result [4]: no binding

B4: Para.09 IgG with the 3.10C2 light chain (antibody, V domains shown)
VH: EVQLVETGGSLVQPGKSLRLTCATSGFPFSNVWLHWVRQSPEKHPEWVAHIKAKSDNYATYYAESVKGRFTISRDDSKSSVFLQMNSLKEEDTAIYYCTDILEYWGQGTLVTVSS
VL: DTVLTQAPLSLSVTPGESASISCRSSKSLLGVRDITSLYWYLQKPGKSPQLLIYRMSNLASGVPDRFSGSGSETDFTLKISEVETEDVGVYYCAQFLRYPYTFGPGTKLELK
binding result [4]: no binding

B5: Para.09 IgG with the 3.50G1 light chain (antibody, V domains shown)
VH: EVQLVETGGSLVQPGKSLRLTCATSGFPFSNVWLHWVRQSPEKHPEWVAHIKAKSDNYATYYAESVKGRFTISRDDSKSSVFLQMNSLKEEDTAIYYCTDILEYWGQGTLVTVSS
VL: DTVLTQAPLSVSVTPGESASISCRSNKSLLGIRDITSLYWFLQKPGKSPQLLIYRMSNLASGVPDRFSGSGSETDFTLKISEVETEDVGVYYCAQFLRYPYTFGPGTKLELQ
binding result [4]: no binding

B6: rat 3.18E5 mIgG2a LALAPG (antibody, V domains shown)
VH: EVQLVETGGSLVQPGKSLKLTCATSGFPFSNVWMHWVRQSPEKQLEWIAHIKAKSDNYATYYAESVKGRFTISRDDSKTTIYLQMNSLKEADTAIYYCTGLDYWGQGVMVTVSS
VL: DTVLTQAPLSVSVTPGESASISCRSNKSLLGIRDITSLYWYLQKPGKSPQLLIYRMSNLASGVPDRFSGSGSETDFTLKISEVETEDVGVYYCAQFLRYPYTFGPGTKLELK
notes: Mouse IgG2a LALAPG constant region
binding result [2]: no binding

B7: 3.10C2 Fab (Fab, V domains shown)
VH: EVQLVETGGSLVQPGKSLKLTCATSGFPFSNVWMHWVRQSPEKQLEWIAHIKAKSDNYATYYAESVKGRFTISRDDSKTSIYLQMNSLKEDDTAIYYCTGLDYWGQGVMVTVSS
VL: DTVLTQAPLSLSVTPGESASISCRSSKSLLGVRDITSLYWYLQKPGKSPQLLIYRMSNLASGVPDRFSGSGSETDFTLKISEVETEDVGVYYCAQFLRYPYTFGPGTKLELK
notes: also called 3.10C2 (3.10C2); Rat3.10C2
Kd [5]: 0.22 nM
koff [5]: 0.00015 s⁻¹
kon [5]: 680000 M⁻¹ s⁻¹
Kd [6]: 0.2 nM
koff [6]: 0.00017 s⁻¹
kon [6]: 850000 M⁻¹ s⁻¹
Kd [7]: 0.22 nM
koff [7]: 0.0002 s⁻¹
kon [7]: 910000 M⁻¹ s⁻¹
Kd [8]: 0.19 nM
koff [8]: 0.00018 s⁻¹
kon [8]: 910000 M⁻¹ s⁻¹
koff [9]: 0.00019 s⁻¹
kon [9]: 720000 M⁻¹ s⁻¹

B8: rat 3.10C2 mIgG2a LALAPG (antibody, V domains shown)
VH: EVQLVETGGSLVQPGKSLKLTCATSGFPFSNVWMHWVRQSPEKQLEWIAHIKAKSDNYATYYAESVKGRFTISRDDSKTSIYLQMNSLKEDDTAIYYCTGLDYWGQGVMVTVSS
VL: DTVLTQAPLSLSVTPGESASISCRSSKSLLGVRDITSLYWYLQKPGKSPQLLIYRMSNLASGVPDRFSGSGSETDFTLKISEVETEDVGVYYCAQFLRYPYTFGPGTKLELK
notes: also called Rat 3.10C2 mIgG1a LALAPG
EC50, Jurkat NFAT luciferase reporter cells [1]: 0.28 µg/mL
binding result [2]: no binding

B9: rat 3.50G1 mIgG2a LALAPG (antibody, V domains shown)
VH: EVQLVETGGSLVQPGKSLKLTCATSGFPFSNVWMHWVRQSPEKQLEWIAHIKAKSDNYATYYAESVKGRFTISRDDSKTSIYLQMNSLKDDDTAIYYCTGLDYWGQGVMVTVSS
VL: DTVLTQAPLSVSVTPGESASISCRSNKSLLGIRDITSLYWFLQKPGKSPQLLIYRMSNLASGVPDRFSGSGSETDFTLKISEVETEDVGVYYCAQFLRYPYTFGPGTKLELQ
notes: as for B6
binding result [2]: no binding

B10: rat 3.27H7 mIgG2a LALAPG (antibody, V domains shown)
VH: EVQLVETGGSLVQPGGSLKLTCATSGFPFSNVWLHWIRRSPEKQLEWVAQIKARSDNYATYYAESVKGRFIVSRDDSKTTIYLQMNNLKEEDTAIYYCTGLDYWGQGVMVTVSS
VL: DVVLTQAPLSVSVTPGESASISCRSSRSLLTSKGITSLYWYLQKPGMSPHLLIYRMSNLASGIPDRFSGSGSETDFTLKISEVEPEDVGVYYCAQFLVYPYTFGAGTKLELK
notes: as for B6
binding result [2]: no binding
